Laboratory results taken from publication PMC8556256.

Target: Flag-tagged PITX2 R115L (mouse)
Assay: co-IP; 293T cells co-transfected with PITX2-Flag (WT or R115L) and NRF2-HA or YAP1-HA; lysis in 50 mM Tris-HCl pH 7.5, 150 mM NaCl, 1% Nonidet P-40, 0.5% sodium deoxycholate; Flag immunoprecipitation at 4 °C overnight, six washes, blot with anti-HA; relative binding capacity = normalized IP-HA intensity / normalized IP-Flag intensity (ImageJ)

reduction of relative binding capacity against WT PITX2 | Molecule
89.1% | HA-tagged YAP1 (from UniProt P46938 1-488) (natural protein)
53.8% | HA-tagged NRF2 (natural protein) MMDLELPPPGLQSQQDMDLIDILWRQDIDLGVSREVFDFSQRQKDYELEKQKKLEKERQEQLQKEQEKAFFAQFQLDEETGEFLPIQPAQHIQTDTSGSASYSQVAHIPKQDALYFEDCMQLLAETFPFVDDHESLALDIPSHAESSVFTAPHQAQSLNSSLEAAMTDLSSIEQDMEQVWQELFSIPELQCLNTENKQLADTTAVPSPEATLTEMDSNYHFYSSISSLEKEVGNCGPHFLHGFEDSFSSILSTDDASQLTSLDSNPTLNTDFGDEFYSAFIAEPSDGGSMPSSAAISQSLSELLDGTIEGCDLSLCKAFNPKHAEGTMEFNDSDSGISLNTSPSRASPEHSVESSIYGDPPPGFSDSEMEELDSAPGSVKQNGPKAQPAHSPGDTVQPLSPAQGHSAPMRESQCENTTKKEVPVSPGHQKAPFTKDKHSSRLEAHLTRDELRAKALHIPFPVEKIINLPVDDFNEMMSKEQFNEAQLALIRDIRRRGKNKVAAQNCRKRKLENIVELEQDLGHLKDEREKLLREKGENDRNLHLLKRRLSTLYLEVFSMLRDEDGKPYSPSEYSLQQTRDGNVFLVPKSKKPDTKKN
